The target of assay [1] is T1, biotinylated human B7-H7 protein (Acro Biosystems, B77-H82F5) (human, UniProt Q9UM44 23-344, biotinylated).
T1 construct: Bought soluble protein; also called biotin-B7H7 protein
T1 sequence (looked up): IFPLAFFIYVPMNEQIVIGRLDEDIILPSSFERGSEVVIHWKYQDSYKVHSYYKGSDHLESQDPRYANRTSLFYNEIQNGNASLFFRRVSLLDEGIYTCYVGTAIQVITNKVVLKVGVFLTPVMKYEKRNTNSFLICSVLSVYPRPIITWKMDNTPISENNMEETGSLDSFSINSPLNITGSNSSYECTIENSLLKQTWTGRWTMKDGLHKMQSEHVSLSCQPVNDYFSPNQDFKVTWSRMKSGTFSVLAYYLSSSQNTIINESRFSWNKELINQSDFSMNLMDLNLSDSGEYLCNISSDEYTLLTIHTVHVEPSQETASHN
In words: flow cytometry, blocking of biotinylated human B7-H7 binding to CHO-K1/KIR3DL3 cells. Background: Flow cytometry measures light scatter and fluorescence of single cells or particles in a stream.

Assay [2] deals with T1, biotinylated human B7-H7 protein (Acro …). The assay is described as follows: flow cytometry, blocking of biotinylated human B7-H7 binding to HEK-293/CD28H cells.
Assay [3] deals with T2, human B7-H7 on the cell surface (human, UniProt Q9UM44 23-414).
T2 construct: whole, on cells; also called hB7-H7; hu B7-H7
T2 sequence (looked up): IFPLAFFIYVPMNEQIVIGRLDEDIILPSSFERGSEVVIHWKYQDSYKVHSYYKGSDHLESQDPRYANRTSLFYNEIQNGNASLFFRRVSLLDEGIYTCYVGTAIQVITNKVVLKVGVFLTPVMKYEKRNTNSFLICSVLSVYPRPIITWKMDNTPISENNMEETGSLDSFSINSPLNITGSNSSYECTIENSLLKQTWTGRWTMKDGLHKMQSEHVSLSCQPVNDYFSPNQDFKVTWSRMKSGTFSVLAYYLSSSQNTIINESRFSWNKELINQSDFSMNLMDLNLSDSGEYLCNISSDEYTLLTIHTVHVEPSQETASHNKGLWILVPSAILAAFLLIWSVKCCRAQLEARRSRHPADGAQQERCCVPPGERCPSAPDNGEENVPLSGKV
The assay is described as follows: flow cytometry, HCC827 cells. A digest of the protocol:
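Cells at 1×10⁶ cells/mL were incubated with antibody in a 3-fold dilution series for 2 hours at 4° C in the dark, then washed in cold PBS with 2% BSA. Surface binding was read as fluorescence signal by flow cytometry.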

Assay [4] has as its target T3, cynomolgus monkey B7-H7 on the cell surface (cynomolgus monkey).
T3 construct: whole, on cells; also called cyno B7-H7
In words: flow cytometry, HEK-293/cyno B7-H7 cells. Here is the method: This example was intended to study the in vitro activity of H2L2 monoclonal antibodies against human B7-H7 in binding to human/cynomolgus monkey B7-H7. Since homologous molecules of B7-H7 were not present in mice, the detection was not performed. […] The cells were adjusted to a cell density of 1×10⁶ cells/mL, respectively. The cells were seeded in a 96-well V-bottom plate (Corning, #3894) at 100 μL/well, and the antibody to be tested at 2× final concentration with 3-fold concentration gradient dilution was then added at 100 μL/well. The cells were incubated at 4° C. for 2 hours in the dark. After the incubation, the cells were rinsed twice by adding pre-chilled PBS containing 2% BSA at 100 μl/well, and centrifuged at 500 g at 4° C. for 5 minutes, and the supernatant was discarded. […] The cells were washed twice by adding pre-chilled PBS containing 2% BSA at 100 μL/well, and centrifuged at 500 g at 4° C. for 5 minutes, and the supernatant was discarded. Finally, the cells were resuspended in pre-chilled PBS containing 2% BSA at 200 μL/well, and the fluorescence signal values were read using an ACEA Novocyte3000 flow cytometer.

B1: PR004260 (antibody, human IgG1, kappa, L234A L235A)
heavy: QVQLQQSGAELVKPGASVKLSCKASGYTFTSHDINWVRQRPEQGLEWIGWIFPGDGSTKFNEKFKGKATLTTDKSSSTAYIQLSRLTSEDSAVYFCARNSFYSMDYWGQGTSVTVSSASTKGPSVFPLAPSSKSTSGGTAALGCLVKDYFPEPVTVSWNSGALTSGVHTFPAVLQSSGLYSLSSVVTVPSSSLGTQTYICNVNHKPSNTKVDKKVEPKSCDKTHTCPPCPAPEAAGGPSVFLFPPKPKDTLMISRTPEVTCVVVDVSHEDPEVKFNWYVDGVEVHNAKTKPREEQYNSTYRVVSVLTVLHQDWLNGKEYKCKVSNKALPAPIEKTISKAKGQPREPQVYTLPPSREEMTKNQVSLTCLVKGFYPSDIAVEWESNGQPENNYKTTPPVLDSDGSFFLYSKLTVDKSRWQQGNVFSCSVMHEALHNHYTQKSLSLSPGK
light: DIVMSQSPSSLAVSAGEKVTMSCKSSQSLLNSRTRKNQLAWYQQKPGQSPKLLIYWASTRESGVPDRFTGSGSGTDFTLTISSVQAEDLAVYYCKQSYNLRTFGGGTKLEIKRTVAAPSVFIFPPSDEQLKSGTASVVCLLNNFYPREAKVQWKVDNALQSGNSQESVTEQDSKDSTYSLSSTLTLSKADYEKHKVYACEVTHQGLSSPVTKSFNRGEC
notes: Variant of PR003181; Human IgG1 with LALA mutation in Fc
In the case of B1, in assay [1], the IC50 is 8.51 nM and the “Maximum inhibition rate (%)” value is 96.2%.

B2: PR003264 (antibody, human IgG1, kappa)
heavy: not shown
light: DIQLTQSPSFLSASVGDRVTITCRASQGISSYFAWYQQKPGKAPKLLIYAASTLQSGVPSRFSGSGSGTEFTLTISSLQPEDFATYYCQHLNRYPWTFGQGTKVEIKRTVAAPSVFIFPPSDEQLKSGTASVVCLLNNFYPREAKVQWKVDNALQSGNSQESVTEQDSKDSTYSLSSTLTLSKADYEKHKVYACEVTHQGLSSPVTKSFNRGEC
notes: Human IgG1; also called 77G10D3
In the case of B2, in assay [2], the IC50 worked out at 1.52 nM and the “Maximum inhibition rate (%)” value is 101%. In assay [1], the IC50 was determined as 8.56 nM and the “Maximum inhibition rate (%)” value is 104%. For the same molecule, in assay [3], the EC50 stood at 0.618 nM and the “Maximum MFI” value amounted to 57000 MFI. Besides, in assay [4], the EC50 was found to be 0.829 nM and the “Maximum MFI” value worked out at 290000 MFI.

B3: PR004263 (antibody, human IgG1, kappa, L234A L235A)
heavy: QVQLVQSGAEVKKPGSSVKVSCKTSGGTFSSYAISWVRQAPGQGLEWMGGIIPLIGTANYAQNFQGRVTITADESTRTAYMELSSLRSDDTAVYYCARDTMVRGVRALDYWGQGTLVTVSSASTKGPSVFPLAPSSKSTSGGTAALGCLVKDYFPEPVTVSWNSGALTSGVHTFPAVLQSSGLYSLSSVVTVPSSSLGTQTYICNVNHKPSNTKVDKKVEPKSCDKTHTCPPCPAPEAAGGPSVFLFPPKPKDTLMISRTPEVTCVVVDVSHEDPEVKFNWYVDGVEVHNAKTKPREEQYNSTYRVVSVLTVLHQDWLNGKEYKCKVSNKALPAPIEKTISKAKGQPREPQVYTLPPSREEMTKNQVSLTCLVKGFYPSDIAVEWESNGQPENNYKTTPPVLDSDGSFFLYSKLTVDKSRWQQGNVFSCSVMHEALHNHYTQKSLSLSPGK
light: DIQLTQSPSFLSASVGDRVTITCRASQGISSYFAWYQQKPGKAPKLLIYAASTLQSGVPSRFSGSGSGTEFTLTISSLQPEDFATYYCQHLNRYPWTFGQGTKVEIKRTVAAPSVFIFPPSDEQLKSGTASVVCLLNNFYPREAKVQWKVDNALQSGNSQESVTEQDSKDSTYSLSSTLTLSKADYEKHKVYACEVTHQGLSSPVTKSFNRGEC
notes: Variant of PR003264; Human IgG1 with LALA mutation in Fc
As to B3, in assay [1], the IC50 was determined as 8.77 nM and the “Maximum inhibition rate (%)” value was 99.9%.

B4: PR003251 (antibody, human IgG1, kappa, V domains shown)
VH: QVQLVESGGGVVQPGRSLRLSCAVSGFTFSRYGMHWVRQAPGKGLDWVAVIWYNGNNKYYTDSVKGRFTISRDNSKNTLFLQMNSLRAEDTAVYYCARDGAYSYGPFDYWGQGTLVTVSS
VL: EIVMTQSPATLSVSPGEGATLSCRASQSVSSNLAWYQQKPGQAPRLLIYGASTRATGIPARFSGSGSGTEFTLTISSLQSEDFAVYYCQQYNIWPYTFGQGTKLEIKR
notes: Human IgG1; also called 29F2C8
As to B4, in assay [2], the IC50 stood at 1.24 nM and the “Maximum inhibition rate (%)” value was found to be 16.2%. In assay [1], the IC50 was found to be 6.34 nM and the “Maximum inhibition rate (%)” value amounted to 96.4%. In addition, in assay [3], the midpoint of the response, the EC50, lay at 0.0373 nM and the “Maximum MFI” value is 53300 MFI. For the same molecule, in assay [4], the midpoint of the response, the EC50, lay at 0.522 nM and the “Maximum MFI” value is 430000 MFI.

B5: PR003254 (antibody, human IgG1, kappa, V domains shown)
VH: QVQLVESGGGVVQPGRSLRLSCAASGFTFSSYGMHWVRQAPGKGLEWVADIWYNGNNKYYADSVKGRFTISRDNSKNTLYLQMNSLRAEDTALYYCARDGGYSYGPFDYWGQGTLVTVSS
VL: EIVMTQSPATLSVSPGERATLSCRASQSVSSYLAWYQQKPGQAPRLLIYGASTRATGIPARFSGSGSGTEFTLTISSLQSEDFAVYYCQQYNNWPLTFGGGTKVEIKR
notes: Human IgG1; also called 59D6D2
On to B5, for which, in assay [2], the IC50 was determined as 1.59 nM and the “Maximum inhibition rate (%)” value amounted to 27.4%. Moreover, in assay [1], the IC50 was 7.18 nM and the “Maximum inhibition rate (%)” value came to 97.2%. For the same molecule, in assay [3], a half-maximal response (EC50) required 0.192 nM and the “Maximum MFI” value worked out at 45900 MFI. In assay [4], the EC50 was determined as 1.24 nM and the “Maximum MFI” value is 389000 MFI.

B6: PR003262 (antibody, human IgG1, kappa, V domains shown)
VH: QVQLVESGGGVVQPGRSLRLSCAASGFTFSRYGIHWVRQAPGKGLEWVAVIWYNGRNKYYVDSVKGRFTISRDNSKNTLYLQMNSLRAEDTAVYYCARDGGYSYGPFDYWGQGTLVTVSS
VL: EIVMTQSPATLSVSPGERATLSCRASQSFSNNLAWYQQKPGQAPRLLIYGASTRATGIPARFSGSGSGTEFTLTISSLQSEDFAVYYCHQYNIWPLTFGGGTKVEIKR
notes: Human IgG1; also called 77D5A4
Turning to B6, in assay [2], the half-maximal inhibitory concentration (IC50) was determined as 3.37 nM and the “Maximum inhibition rate (%)” value came out at 26.4%. Further, in assay [1], the IC50 was determined as 9.93 nM and the “Maximum inhibition rate (%)” value worked out at 105%. Moreover, in assay [3], it took 0.041 nM to reach a half-maximal effect (EC50) and the “Maximum MFI” value was 54000 MFI. For the same molecule, in assay [4], the EC50 came out at 0.59 nM and the “Maximum MFI” value was 419000 MFI.

B7: PR003260 (antibody, human IgG1, kappa, V domains shown)
VH: QVQLVESGGGVVQPGRSLRLPCAASGFTFSRYGMHWVRQAPGKGLEWVADIWYDGSKKYYADSVKGRFTISRDNSKNTLYLQMNSLRAEDTAVYFCTRDGGYSYGPFDYWGQGTLVTVSS
VL: EIVMTQSPATLSVSPGERATLSCRASQSVSSNLAWYQQKPGQAPRLLIYYASTRAPGIPARFSGSESGTEFTLTISSLQSEDFAVYYCQQYNIWPYTFGQGTKLEIKR
notes: Human IgG1; also called 70F3B1
B7: in assay [2], the IC50 turned out to be 2.47 nM and the “Maximum inhibition rate (%)” value is 20.4%. Further, in assay [1], the IC50 worked out at 6.46 nM and the “Maximum inhibition rate (%)” value came to 106%. Besides, in assay [3], the EC50 came out at 0.0439 nM and the “Maximum MFI” value came out at 53300 MFI. For the same molecule, in assay [4], the EC50 worked out at 0.588 nM and the “Maximum MFI” value was determined as 447000 MFI.

B8: PR003263 (antibody, human IgG1, kappa, V domains shown)
VH: QVQLVESGGGVVQPGRSLRLSCAASGFTFSYYGLNWVRQAPGKGLEWVAVIWFDGTNKYYADSVKGRFTISRDDSKNTLYLQMNSLRAEDTAVYYCARGYGSGSYYNYVMDAWGQGASVTVSS
VL: EIVMTQSPATLSVSPGERATLSCRASQSVSSNLAWYQQKPGQAPRLLIYGASTGATGIPARFSGSGSGTDFTLTISSLQSEDFAVYYCQQYYKWPLTFGGGTKVEIKR
notes: Human IgG1; also called 77E6C4
For B8, in assay [2], the IC50 stood at 1.7 nM and the “Maximum inhibition rate (%)” value came out at 59.3%. In assay [1], the IC50 was determined as 6.23 nM and the “Maximum inhibition rate (%)” value was 103%. Also, in assay [3], the EC50 worked out at 0.0789 nM and the “Maximum MFI” value amounted to 53200 MFI. Moreover, in assay [4], the 50% effective concentration (EC50) came to 0.556 nM and the “Maximum MFI” value amounted to 410000 MFI.

A word on the IC50: it is the concentration that inhibits the measured activity by half. Usually EC50 stands for the midpoint of the concentration-response curve.
